Values quoted from earlier work, collected in patent US6823267B2, “Structural prediction of allosterism” (The Johns Hopkins University, priority 2000, dated 2004).

Biological target: glycerol kinase (Escherichia coli, UniProt P0A6F3)
Conditions: at 25° C.

Sequence of glycerol kinase (P0A6F3 whole entry): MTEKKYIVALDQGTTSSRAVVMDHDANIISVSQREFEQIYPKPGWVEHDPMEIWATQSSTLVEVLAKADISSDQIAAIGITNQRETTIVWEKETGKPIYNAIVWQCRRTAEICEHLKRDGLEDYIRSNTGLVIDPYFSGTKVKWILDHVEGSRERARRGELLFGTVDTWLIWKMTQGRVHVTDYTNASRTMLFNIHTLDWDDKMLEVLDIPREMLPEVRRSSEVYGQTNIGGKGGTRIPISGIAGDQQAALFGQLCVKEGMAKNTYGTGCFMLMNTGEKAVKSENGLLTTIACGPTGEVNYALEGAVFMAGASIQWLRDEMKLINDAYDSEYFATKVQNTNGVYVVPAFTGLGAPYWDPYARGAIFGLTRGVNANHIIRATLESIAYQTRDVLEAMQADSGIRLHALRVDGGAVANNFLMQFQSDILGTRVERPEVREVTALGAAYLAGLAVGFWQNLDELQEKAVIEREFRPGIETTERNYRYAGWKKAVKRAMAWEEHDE

B1: IIAGlc: protein that is an allosteric inhibitor of the enzyme glycerol kinase (protein, UniProt P69783 2-169, looked up)
PTS system glucose-specific …: GLFDKLKSLVSDDKKDTGTIEIIAPLSGEIVNIEDVPDVVFAEKIVGDGIAIKPTGNKMVAPVDGTIGKIFETNHAFSIESDSGVELFVHFGIDTVELKGEGFKRIAEEGQRVKVGDTVIEFDLPLLEEKAKSTLTPVVISNMDEIKELIKLSGSVTVGETPVIRIKK
- association constant of IIAGlc to glycerol kinase: ~10^5 M^−1
